Patent US20180155451A1 (published 2018)
Where a chain is given by its changes, count along the chain named. Names may count otherwise.

B1: GpH7-TA1/GpH7-B3-15-02A/GpL16-k0 (antibody, human IgG1, kappa)
heavy 1: QVQLVQSGAEVKKPGASVTVSCKASGYTFTDYEMHWIRQPPGEGLEWIGAIDPKTGDTAYSESFQDRVTLTADKSTSTAYMELSSLTSEDTAVYYCTRFYSYTYWGQGTLVTVSSASTKGPSVFPLAPSSKSTSGGTAALGCLVKDYFPEPVTVSWNSGALTSGVHTFPAVLQSSGLYSLSSVVTVPSSSLGTQTYICNVNHKPSNTKVDKKVEPKSCDKTHTCPPCPAPEYLGGPSVFLFPPKPKDTLMISRTPEVTCVVVDVSHEDPEVKFNWYVDGVEVHNAKTKPREEQYNSTYRVVSVLTVLHQDWLNGKEYKCKVSNKALPAPIEKTISKAKGQPREPQVYTLPPSRKELTKNQVSLTCLVKGFYPSDIAVEWESNGQPENNYKTTPPVLDSDGSFFLYSKLTVDKSRWQQGNVFSCSVMHEALHNRYTQKSLSLSP
heavy 2: not shown
light: DIVMTQSPLSLPVTPGEPASISCQASESLVHSNRNTYLHWYLQKPGQSPQLLIYKVSNRFSGVPDRFSGSGSGTDFTLKISRVEAEDVGVYYCSQNTHVPPTFGQGTKVEIERTVAAPSVFIFPPSDEQLKSGTASVVCLLNNFYPREAKVQWKVDNALQSGNSQESVTEQDSKDSTYSLSSTLTLSKADYEKHKVYACEVTHQGLSSPVTKSFNRGEC
notes: H1 L234Y; H2 S298A
B2: GpH7-A5/GpH7-B3 variant S324_02A/GpL16-k0 (antibody, human IgG1, kappa)
heavy 1: not shown
heavy 2: not shown
light: B1 light
notes: Heterodimerized IgG1, mutation in the GpH7-B3 chain only; also called He Ab
B3: GpH7-A5/GpH7-B3 variant H268_04F/GpL16-k0 (antibody, human IgG1, kappa)
heavy 1: not shown
heavy 2: not shown
light: B1 light
notes: as for B2
B4: GpH7-A5/GpH7-B3 variant Y296_04F/GpL16-k0 (antibody, human IgG1, kappa)
heavy 1: not shown
heavy 2: not shown
light: B1 light
notes: as for B2
B5: GpH7-A5/GpH7-B3 variant I332_03V/GpL16-k0 (antibody, human IgG1, kappa)
heavy 1: not shown
heavy 2: not shown
light: B1 light
notes: as for B2
B6: GpH7-A5/GpH7-B3 variant Y300_08L/GpL16-k0 (antibody, human IgG1, kappa)
heavy 1: not shown
heavy 2: not shown
light: B1 light
notes: as for B2
B7: GpH7-TA4/GpH7-B3/GpL16-k0 (antibody, human IgG1, kappa)
heavy 1: B1 heavy 1 with G234W
heavy 2: not shown
light: B1 light
notes: H1 L234Y and G236W
B8: GpH7-TA2/GpH7-B3-01-15Y/GpL16-k0 (antibody, human IgG1, kappa)
heavy 1: B1 heavy 1 with Y232L, G234W
heavy 2: not shown
light: B1 light
notes: H1 G236W; H2 L234Y
B9: GpH7-A5/GpH7-B3 variant S324_10E/GpL16-k0 (antibody, human IgG1, kappa)
heavy 1: not shown
heavy 2: not shown
light: B1 light
notes: as for B2
B10: GpH7-A5/GpH7-B3 variant I332_16H/GpL16-k0 (antibody, human IgG1, kappa)
heavy 1: not shown
heavy 2: not shown
light: B1 light
notes: as for B2
B11: GpH7-A5/GpH7-B3 variant Y296_09D/GpL16-k0 (antibody, human IgG1, kappa)
heavy 1: not shown
heavy 2: not shown
light: B1 light
notes: as for B2
B12: GpH7-A5/GpH7-B3 variant I332_18N/GpL16-k0 (antibody, human IgG1, kappa)
heavy 1: not shown
heavy 2: not shown
light: B1 light
notes: as for B2
B13: GpH7-A5/GpH7-B3 variant I332_19Q/GpL16-k0 (antibody, human IgG1, kappa)
heavy 1: not shown
heavy 2: not shown
light: B1 light
notes: as for B2
B14: GpH7-A5/GpH7-B3 variant S324_15Y/GpL16-k0 (antibody, human IgG1, kappa)
heavy 1: not shown
heavy 2: not shown
light: B1 light
notes: as for B2
B15: GpH7-TA5/GpH7-B3-03-20W/GpL16-k0 (antibody, human IgG1, kappa)
heavy 1: B1 heavy 1 with S296A
heavy 2: not shown
light: B1 light
notes: H1 L234Y and S298A; H2 G236W
B16: GpH7-A5/GpH7-B3 variant A330_12R/GpL16-k0 (antibody, human IgG1, kappa)
heavy 1: not shown
heavy 2: not shown
light: B1 light
notes: as for B2
B17: GpH7-TA5/GpH7-B3/GpL16-k0 (antibody, human IgG1, kappa)
heavy 1: B1 heavy 1 with S296A
heavy 2: not shown
light: B1 light
notes: H1 L234Y and S298A
B18: GpH7-TA7/GpH7-B3/GpL16-k0 (antibody, human IgG1, kappa)
heavy 1: B1 heavy 1 with G234W, S296A
heavy 2: not shown
light: B1 light
notes: H1 L234Y, G236W and S298A
B19: GpH7-TA4/GpH7-B3-15-02A/GpL16-k0 (antibody, human IgG1, kappa)
heavy 1: B1 heavy 1 with G234W
heavy 2: not shown
light: B1 light
notes: H1 L234Y and G236W; H2 S298A
B20: GpH7-A5/GpH7-B3 variant A330_19Q/GpL16-k0 (antibody, human IgG1, kappa)
heavy 1: not shown
heavy 2: not shown
light: B1 light
notes: as for B2
B21: GpH7-A5/GpH7-B3 variant Y296_16H/GpL16-k0 (antibody, human IgG1, kappa)
heavy 1: not shown
heavy 2: not shown
light: B1 light
notes: as for B2
B22: GpH7-TA6/GpH7-B3/GpL16-k0 (antibody, human IgG1, kappa)
heavy 1: B1 heavy 1 with Y232L, G234W, S296A
heavy 2: not shown
light: B1 light
notes: H1 G236W and S298A
B23: GpH7-A5/GpH7-B3 variant D270_10E/GpL16-k0 (antibody, human IgG1, kappa)
heavy 1: not shown
heavy 2: not shown
light: B1 light
notes: as for B2
B24: GpH7-A5/GpH7-B3 variant Y296_18N/GpL16-k0 (antibody, human IgG1, kappa)
heavy 1: not shown
heavy 2: not shown
light: B1 light
notes: as for B2
B25: GpH7-TA6/GpH7-B3-01-15Y/GpL16-k0 (antibody, human IgG1, kappa)
heavy 1: B1 heavy 1 with Y232L, G234W, S296A
heavy 2: not shown
light: B1 light
notes: H1 G236W and S298A; H2 L234Y
B26: GpH7-A5/GpH7-B3 variant I332_13S/GpL16-k0 (antibody, human IgG1, kappa)
heavy 1: not shown
heavy 2: not shown
light: B1 light
notes: as for B2
B27: GpH7-A5/GpH7-B3 variant S324_09D/GpL16-k0 (antibody, human IgG1, kappa)
heavy 1: not shown
heavy 2: not shown
light: B1 light
notes: as for B2
B28: GpH7-A5/GpH7-B3 variant Y300_07I/GpL16-k0 (antibody, human IgG1, kappa)
heavy 1: not shown
heavy 2: not shown
light: B1 light
notes: as for B2
B29: GpH7-A5/GpH7-B3 variant A330_11K/GpL16-k0 (antibody, human IgG1, kappa)
heavy 1: not shown
heavy 2: not shown
light: B1 light
notes: as for B2
B30: GpH7-A5/GpH7-B3 variant Q295_07I/GpL16-k0 (antibody, human IgG1, kappa)
heavy 1: not shown
heavy 2: not shown
light: B1 light
notes: as for B2
B31: GpH7-A5/GpH7-B3 variant Q295_05P/GpL16-k0 (antibody, human IgG1, kappa)
heavy 1: not shown
heavy 2: not shown
light: B1 light
notes: as for B2
B32: GpH7-A5/GpH7-B3 variant S324_16H/GpL16-k0 (antibody, human IgG1, kappa)
heavy 1: not shown
heavy 2: not shown
light: B1 light
notes: as for B2
B33: GpH7-A5/GpH7-B3 variant K326_12R/GpL16-k0 (antibody, human IgG1, kappa)
heavy 1: not shown
heavy 2: not shown
light: B1 light
notes: as for B2
B34: GpH7-A5/GpH7-B3 variant S324_20W/GpL16-k0 (antibody, human IgG1, kappa)
heavy 1: not shown
heavy 2: not shown
light: B1 light
notes: as for B2
B35: GpH7-TA3/GpH7-B3-03-20W/GpL16-k0 (antibody, human IgG1, kappa)
heavy 1: B1 heavy 1 with Y232L, S296A
heavy 2: not shown
light: B1 light
notes: H1 S298A; H2 G236W
B36: GpH7-A5/GpH7-B3 variant A330_16H/GpL16-k0 (antibody, human IgG1, kappa)
heavy 1: not shown
heavy 2: not shown
light: B1 light
notes: as for B2
B37: GpH7-A5/GpH7-B3 variant S324_04F/GpL16-k0 (antibody, human IgG1, kappa)
heavy 1: not shown
heavy 2: not shown
light: B1 light
notes: as for B2
B38: GpH7-A5/GpH7-B3 variant Y300_06M/GpL16-k0 (antibody, human IgG1, kappa)
heavy 1: not shown
heavy 2: not shown
light: B1 light
notes: as for B2

Tests used:
[1] = molecular target: T1, FcγRIIIa extracellular domain with C-terminal His tag (human, UniProt P08637 17-208); test: SPR relative binding; GpH7-A5/GpH7-B3/GpL16-k0 = 100
T1 construct: extracellular domain; also called FcgRIIIa; 3a; not shown: His tag at the C terminus
T1 sequence (P08637 17-208): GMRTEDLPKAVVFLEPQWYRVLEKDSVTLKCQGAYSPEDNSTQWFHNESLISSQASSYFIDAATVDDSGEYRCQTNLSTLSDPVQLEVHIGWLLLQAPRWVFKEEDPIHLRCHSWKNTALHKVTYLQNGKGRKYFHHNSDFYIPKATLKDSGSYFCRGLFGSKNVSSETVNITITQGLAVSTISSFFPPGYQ
Protocol: Analysis of interaction between objective antibody and the FcγR was carried out using Biacore T100 (GE Healthcare). HBS-EP+ (GE Healthcare) was used as the running buffer, and the measurement temperature was set to 25° C. Chips produced by immobilizing the antigen peptide by the amine coupling method to a Series S Sencor Chip CM5 (GE Healthcare), or alternatively, chips produced by allowing preliminarily biotinylated antigen peptides to interact with and immobilize onto a Series S Sensor Chip SA (certified) (GE Healthcare) were used. Antibodies of interest were captured onto an antigen peptide-immobilized chip, and allowed to interact to each FcγR diluted with running buffer. To regenerate and repeatedly use the chip, the antibodies captured on the chip were washed off by reacting 10 mM glycine-HCl, pH 1.5.
The FcγR-binding activity of each antibody was assessed primarily using as an indicator the FcγR-binding activity and dissociation constant for FcγR.

[2] = molecular target: T2, FcγRIIa H (human, UniProt P12318 34-217); test: SPR (Biacore), antibody captured, FcγR as analyte; binding relative to GpH7-A5/GpH7-B3/GpL16-k0 = 100
T2 construct: extracellular domain; also called FcgRIIa H; FcγRIIa type H; not shown: His tag attached to the C terminus
T2 sequence (looked up): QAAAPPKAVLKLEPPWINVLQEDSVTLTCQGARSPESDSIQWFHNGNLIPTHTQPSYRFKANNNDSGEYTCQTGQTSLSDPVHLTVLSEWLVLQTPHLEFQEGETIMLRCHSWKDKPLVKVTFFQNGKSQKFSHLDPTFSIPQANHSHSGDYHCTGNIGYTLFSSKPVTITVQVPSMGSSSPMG

[3] = molecular target: T3, FcγRIIb (human, UniProt P31994 43-217); test: as above
T3 construct: extracellular domain; also called FcgRIIb; 2b; not shown: His tag attached to the C terminus
T3 sequence (looked up): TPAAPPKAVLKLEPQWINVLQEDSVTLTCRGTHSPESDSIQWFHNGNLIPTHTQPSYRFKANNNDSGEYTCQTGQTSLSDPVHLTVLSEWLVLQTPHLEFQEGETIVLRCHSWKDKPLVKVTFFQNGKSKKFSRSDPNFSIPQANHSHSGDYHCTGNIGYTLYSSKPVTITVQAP

Binder	FcγRIIIa BINDING ACTIVITY [1]	He/Con_2aH [2] [control = 100]	He/Con_2b [3] [control = 100]
B1	142 % of control	–	–
B2	–	102	78.3
B3	–	111	89.6
B4	–	100	99.2
B5	–	105	80.7
B6	–	108	73.6
B7	168 % of control	–	–
B8	130 % of control	–	–
B9	–	103	77.4
B10	–	109	93
B11	–	104	98.9
B12	–	110	89.9
B13	–	108	94.3
B14	–	102	88.2
B15	97 % of control	–	–
B16	–	108	84.8
B17	208 % of control	–	–
B18	201 % of control	–	–
B19	151 % of control	–	–

Binder	FcγRIIIa BINDING ACTIVITY [1]	He/Con_2aH [2] [control = 100]	He/Con_2b [3] [control = 100]
B20	–	102	90.8
B21	–	104	92.2
B22	228 % of control	–	–
B23	–	102	76.5
B24	–	104	91.5
B25	103 % of control	–	–
B26	–	110	98.4
B27	–	106	85.8
B28	–	108	74.5
B29	–	109	95
B30	–	102	84.3
B31	–	103	67.5
B32	–	102	83.5
B33	–	101	89.2
B34	–	103	87.5
B35	70 % of control	–	–
B36	–	101	87.6
B37	–	101	89.1
B38	–	105	84.3
